Data as given in patent US20250270287A1 (KEROS THERAPEUTICS, published 2025).
Numbering of substitutions follows the chain as printed.

T1: Activin A (UniProt P08476 311-426)
T1 sequence (looked up): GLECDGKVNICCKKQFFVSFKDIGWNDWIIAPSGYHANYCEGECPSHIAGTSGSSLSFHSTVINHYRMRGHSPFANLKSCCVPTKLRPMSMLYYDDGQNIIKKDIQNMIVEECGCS

T2: Activin B (UniProt P09529 293-407)
T2 sequence (looked up): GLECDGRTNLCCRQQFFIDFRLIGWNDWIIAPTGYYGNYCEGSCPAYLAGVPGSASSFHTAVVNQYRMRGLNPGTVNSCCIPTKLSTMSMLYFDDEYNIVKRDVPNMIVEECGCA

T3: GDF-11 (UniProt O95390 299-407)
T3 sequence (looked up): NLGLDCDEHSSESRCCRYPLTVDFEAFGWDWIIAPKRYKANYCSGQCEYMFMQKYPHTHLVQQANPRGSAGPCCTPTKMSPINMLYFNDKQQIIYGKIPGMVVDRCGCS

T4: BMP-9 (UniProt Q9UK05 320-429)
T4 sequence (looked up): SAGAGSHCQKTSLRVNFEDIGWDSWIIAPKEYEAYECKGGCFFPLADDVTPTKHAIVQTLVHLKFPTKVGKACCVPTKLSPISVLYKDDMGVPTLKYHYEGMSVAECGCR

T5: growth differentiation factor 8 (GDF-8) (UniProt O14793 267-375)
T5 construct: also called myostatin
T5 sequence (looked up): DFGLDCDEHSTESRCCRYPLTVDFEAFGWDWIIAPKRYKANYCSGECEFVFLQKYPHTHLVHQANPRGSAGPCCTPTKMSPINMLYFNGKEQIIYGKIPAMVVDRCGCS

T6: BMP-10 (UniProt O95393 317-424)
T6 sequence (looked up): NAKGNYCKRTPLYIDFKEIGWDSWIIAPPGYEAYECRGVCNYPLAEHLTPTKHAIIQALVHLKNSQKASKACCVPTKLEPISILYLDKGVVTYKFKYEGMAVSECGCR

B1: ActRIIA-A1 (SEQ ID NO: 104) chimera-Fc protein (Fc fusion)
chain: GRGEAETRECLFFNANWEKDRTNQTGVEPCYGDKDKRRHCFATWKNISGSIEIVKQGCWLDDINCYDRTDCVEKKDSPEVYFCCCEGNMCNEKFSYFPEMEVTQPTS
notes: Tested as chimera-Fc protein; not shown: linker (if any) and Fc domain
B2: ActRIIB-A8 (SEQ ID NO: 126) chimera-Fc protein (Fc fusion)
chain: GRGEAETRECIYYNANWELERTNQSGLERCEGEQDKRLHCYASWRNSSGTIELVKKGCWLDDFNCYDRQECVATEENPQVYFCCCEGNFCNERFTHLPEMEVTQPTS
notes: as for B1
B3: ActRIIB-B2 (SEQ ID NO: 111) chimera-Fc protein (Fc fusion)
chain: GRGEAETRECIYYNANWELERTNQTGVEPCEGEQDKRLHCYASWRNSSGTIELVKKGCWLDDFNCYDRQECVATEENPQVYFCCCEGNFCNERFTHLPEAGGPEVTYEPPPTAPT
notes: as for B1
B4: ActRIIB-B3 (SEQ ID NO: 112) chimera-Fc protein (Fc fusion)
chain: B3 chain with T25S, V27L, P29R, L38R, Y41F, S43T, R45K, S47I
notes: as for B1
B5: ActRIIB-B7 (SEQ ID NO: 115) chimera-Fc protein (Fc fusion)
chain: B3 chain with T25S, V27L, P29R, R93K, T95S, H96Y, L97F
notes: as for B1
B6: ActRIIB-B5 (SEQ ID NO: 114) chimera-Fc protein (Fc fusion)
chain: B3 chain with T25S, V27L, P29R, A73E, T74K
notes: as for B1
B7: ActRIIB-B1B2B3B4 (SEQ ID NO: 119) chimera-Fc protein (Fc fusion)
chain: GRGEAETRECLFFNANWELERTNQTGVEPCEGEQDKRRHCFATWKNISGSIEIVKQGCWLDDFNCYDRQECVATEENPQVYFCCCEGNFCNERFTHLPEAGGPEVTYEPPPTAPT
notes: as for B1

Target: T1, Activin A
Assay: cell-based or functional assay

IC50, SBE-luciferase reporter in HEK293 cells [µg/mL]	Binder
0.64	B1

Target: T2, Activin B
Assay: cell-based or functional assay

IC50, SBE-luciferase reporter in HEK293 cells [µg/mL]	Binder
0.21	B1

Target: T3, GDF-11
Assay: cell-based or functional assay

IC50, SBE-luciferase reporter in HEK293 cells [µg/mL]	Binder
0.24	B1

Target: T4, BMP-9
Assay: cell-based or functional assay

IC50, BRE-luciferase reporter in C2C12 cells [µg/mL]	Binder
50	B1

Target: T1, Activin A
Assay: cell-based or functional assay
Remark: another data set of the same source

IC50, SBE-luciferase reporter in HEK293 cells [µg/mL]	Binder
0.23	B2
0.14	B3
0.07	B4
0.067	B5
0.069	B6
0.13	B7

Target: T2, Activin B
Assay: cell-based or functional assay
Remark: another data set of the same source

IC50, SBE-luciferase reporter in HEK293 cells [µg/mL]	Binder
0.052	B2
0.17	B3
0.096	B4
0.12	B5
0.11	B6
0.086	B7

Target: T3, GDF-11
Assay: cell-based or functional assay
Remark: another data set of the same source

IC50, SBE-luciferase reporter in HEK293 cells [µg/mL]	Binder
0.13	B2
0.27	B3
0.14	B4
0.15	B5
0.096	B6
0.14	B7

Target: T4, BMP-9
Assay: cell-based or functional assay
Remark: another data set of the same source

IC50, BRE-luciferase reporter in C2C12 cells [µg/mL]	Binder
3.6	B2
0.3	B3
0.41	B4
0.032	B5
0.022	B6
0.36	B7

Target: T1, Activin A
Assay: SPR (Biacore 8K), Fc protein captured on anti-human IgG, ligand injected
Experimental: (§1) The Cytiva Biacore 8k was used to measure the kinetics of the interactions between the ActRII- and chimera-Fc proteins and Activin A/Activin B/growth differentiation factor 8 (GDF-8)/GDF-11/BMP-9/BMP-10. Series S CM4 Sensor Chips were immobilized with anti-human capture antibody using the reagents and protocol in the Biacore Human Antibody Capture Kit (GE Life Sciences). Briefly, anti-human IgG was diluted to 25 μg/mL in immobilization buffer. The carboxylated surface of the sensor was activated by injecting a mixture of EDC and NHS. The anti-human IgG was injected into the activated sensor chip flow cells at 10 μL/min for a total of 7 minutes until the chip reached an immobilization level of 3000 resonance units (RU). Ethanolamine was injected to deactivate the sensor surfaces. The chip has 8 flow cells to be used for binding analysis, each with an in-line reference surface to subtract instrument noise and non-specific binding to the sensor chip. The ActRII- and chimera-Fc proteins were captured in their own flow cell to allow for a maximum analyte binding response of 20-30 RU. This was done by injecting 10-20 μL of the ActRII- and chimera-Fc proteins into the flow cells at a concentration of 2 μg/mL until 60-90 RU was captured. Ligand at a single concentration was injected at […] for 60 seconds and then allowed to dissociate under buffer flow for no less than 5 minutes. After the cycle completed, captured protein was stripped from the chip with an injection of 3 M magnesium chloride, the regeneration buffer provided with the Biacore Human Antibody Capture Kit. Each ligand was injected in a concentration series, including a buffer only 0 nM concentration to serve as a double reference for subtracting out instrument noise. The data were analyzed using the Biacore Insight Evaluation Software.

Kd [pM]	Binder
44.2	B2
70.3	B1
< 1	B3
1.52	B4
< 1	B5
3.27	B6
6.6	B7

Target: T2, Activin B
Assay: as above
Experimental: as §1

Kd [pM]	Binder
< 1	B2
19.9	B1
11.6	B3
5.81	B4
< 1	B5
15.8	B6
19.7	B7

Target: T5, growth differentiation factor 8 (GDF-8)
Assay: as above
Experimental: as §1

Kd [pM]	Binder
4.23	B2
203	B1
< 1	B3
10.4	B4
3.46	B5
10.2	B6
3.54	B7

Target: T3, GDF-11
Assay: as above
Experimental: as §1

Kd [pM]	Binder
< 1	B2
< 1	B1
< 1	B3
1.17	B4
< 1	B5
< 1	B6
< 1	B7

Target: T4, BMP-9
Assay: as above
Experimental: as §1

Kd [pM]	Binder
74	B2
62000	B1
3.27	B3
361	B4
20.2	B5
63.2	B6
1080	B7

Target: T6, BMP-10
Assay: as above
Experimental: as §1

Kd [pM]	Binder
29.2	B2
66.3	B1
20.5	B3
175	B4
< 1	B5
41.4	B6
369	B7
